Data reported in patent US20250320312A1 (OXITOPE PHARMA B V, published 2025).
Changes are numbered by the printed parent chain. Blank lines part the entries; values can stand above or below the binder they belong to.

Key:
[1] = molecular target: BSA (UniProt P02769); assay: scFv ELISA
[2] = molecular target: T1, Peptide 1: Biotin-AGGGGSGGGGSGGGGSAAA-[Tyr(PC)]-acid (N-terminal biotin; C-terminal Tyr(PC), PC = p-diazophenyl phosphoryl choline; C-terminal acid); assay: scFv ELISA
T1 construct: synthetic PC-conjugated peptide; the antibodies are directed at the phosphocholine group
T1 peptide: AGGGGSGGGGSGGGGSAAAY
Summary of the method: (§1)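 Bound scFv was read as OD450 after HRP–anti-V5 detection, TMB development and HCl stop. PPE with BSA was incubated 1 h at RT on BSA-blocked wells coated overnight at 4° C. with peptide, or on streptavidin wells loaded 1 h with biotinylated PC-peptides at 1 μg/mL.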

[3] = molecular target: T2, Peptide 4: Biotin-AGGGGSGGGGSGGGGSAAA-Tyr-acid (N-terminal biotin; C-terminal acid); assay: scFv ELISA
T2 construct: control peptide without PC
T2 peptide: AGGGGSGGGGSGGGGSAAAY
Summary of the method: as §1

[4] = molecular target: T3, Peptide 5: Biotin-AEAAAKEAAAKEAAAKEAAAKAAA-[Tyr(PC)]-acid (N-terminal biotin; C-terminal Tyr(PC), PC = p-diazophenyl phosphoryl choline; C-terminal acid); assay: scFv ELISA
T3 construct: synthetic PC-conjugated peptide; the antibodies are directed at the phosphocholine group
T3 peptide: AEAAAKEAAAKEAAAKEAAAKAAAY
Summary of the method: as §1

[5] = molecular target: T4, Peptide 8: Biotin-AEAAAKEAAAKEAAAKEAAAKAAA-Tyr-acid (N-terminal biotin; C-terminal acid); assay: scFv ELISA
T4 construct: control peptide without PC
T4 peptide: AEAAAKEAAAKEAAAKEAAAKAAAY
Summary of the method: as §1

[6] = molecular target: PC-BSA; assay: ELISA (DELFIA TRF), PC-BSA coated, titrated IgG1
Sequence of PC-BSA (P02769 25-607 limits assumed, form in doubt): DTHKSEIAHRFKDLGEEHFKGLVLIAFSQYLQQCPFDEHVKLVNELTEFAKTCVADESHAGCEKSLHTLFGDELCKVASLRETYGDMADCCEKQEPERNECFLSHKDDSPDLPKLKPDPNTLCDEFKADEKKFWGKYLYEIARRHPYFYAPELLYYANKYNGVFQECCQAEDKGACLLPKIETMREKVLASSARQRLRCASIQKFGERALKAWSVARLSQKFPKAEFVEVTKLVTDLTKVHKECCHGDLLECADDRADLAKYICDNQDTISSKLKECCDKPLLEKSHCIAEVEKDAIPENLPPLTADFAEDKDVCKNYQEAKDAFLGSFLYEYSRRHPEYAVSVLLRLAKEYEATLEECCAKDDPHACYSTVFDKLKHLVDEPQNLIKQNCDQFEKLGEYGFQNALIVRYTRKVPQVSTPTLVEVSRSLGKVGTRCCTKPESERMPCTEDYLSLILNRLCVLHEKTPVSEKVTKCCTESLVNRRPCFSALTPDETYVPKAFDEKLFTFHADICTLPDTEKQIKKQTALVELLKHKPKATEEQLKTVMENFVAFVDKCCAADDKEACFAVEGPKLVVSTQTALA

[7] = molecular target: BSA (UniProt P02769); assay: scFv ELISA, periplasmic extract on coated BSA, anti-V5-HRP detection

Sequence of BSA (P02769 25-607 limits assumed): as the sequence (P02769 25-607 limits assumed, form in doubt) above

OD450 [1]: 0.1 OD450 | OD450 [2]: 0.06 OD450 | OD450 [3]: 0.04 OD450 | OD450 [4]: 0.08 OD450 | OD450 [5]: 0.04 OD450
B1: PcOxP_DB02_E06 (scFv, V domains shown)
VH: EVQLLESGGGLVQPGGSLRLSCAASGFTFSDEYMEWVRQAPGKGLEWVAASRGKGNSYTTEYADSVKGRFTISRDNSKNTLYLQMNSLRAEDTAVYYCARDYYGSSYWYFDVWGQGTLVTVSS
VL: DIQMTQSPSSLSASVGDRVTITCTASESLYSSKHKVHYLAWYQQKPGKAPKLLIYGASNRYIGVPSRFSGSGSGTDFTLTISSLQPEDFATYYCAQFYSYPLTFGGGTKVEIK
notes: scFv in periplasmic extract

EC50 [6]: 0.278 nM
B2: PcOxP_DB02_B04 (human IgG1) (antibody, V domains shown)
VH: B1 VH with E32Y, G53N, G55W, S57D
VL: DIVMTQSPDSLAVSLGERATINCTASESLYSSKHKVHYLAWYQQKPGQPPKLLIYGASNRYIGVPDRFSGSGSGTDFTLTISSLQAEDVAVYYCAQFYSYPLTFGGGTKVEIK

EC50 [6]: 0.229 nM
B3: PcOxP_DB03_H03 (human IgG1) (antibody, V domains shown)
VH: B1 VH with F29G, E32F, G53N, G55W, S57D
VL: DIQMTQSPSSLSASVGDRVTITCTASESLSSSKHKHYLAWYQQKPGKAPKLLIYGASSRYSGVPSRFSGSGSGTDFTLTISSLQPEDFATYYCAQFYSYPLTFGGGTKVEIK

EC50 [6]: 0.251 nM
B4: PcOxP_DB04_E08 (human IgG1) (antibody, V domains shown)
VH: B1 VH with F29S, E32F, M34L, G53N, G55W, S57D
VL: B2 VL with A57V

EC50 [6]: 0.244 nM
B6: PcOxP_DB01_F11 (human IgG1) (antibody, V domains shown)
VH: B1 VH with D31S, E32Y, G53N, G55A, S57D, F110Y
VL: B2 VL

More lines, now with the values behind:

B5: PcOxP_DB04_G11 (scFv) (scFv, V domains shown)
VH: B1 VH with E32H, G53W, G55A, S57D
VL: B2 VL with R60T
OD450 [7]: 0.07 OD450

B7: PcOxP_DB04_A04 (human IgG1) (antibody, V domains shown)
VH: B1 VH with E32F, G53N, G55W, S57D
VL: B2 VL with E27Q, L29V, H34N, V36K, S99R
EC50 [6]: 0.294 nM

B8: PcOxP_DB01_F04 (human IgG1) (antibody, V domains shown)
VH: B1 VH with D31S, E32Y, G53N, G55Y, S57D
VL: B1 VL with S58V, S99R
EC50 [6]: 0.344 nM

B9: PcOxP_DB02_G04 (human IgG1) (antibody, V domains shown)
VH: B1 VH with E32Y, G53W, G55A, S57D
VL: B2 VL with T24K, E27Q, L29V, Y30L, S31Y, H34N, V36K, Y61Q, S99V
EC50 [6]: 0.231 nM

B10: PcOxP_DB01_B06 (human IgG1) (antibody, V domains shown)
VH: B1 VH with D31S, E32Y, G53N, G55Y, S57D, Y107T
VL: B2 VL
EC50 [6]: 0.219 nM

B11: PcOxP_DB01_F06 (human IgG1) (antibody, V domains shown)
VH: B1 VH with F27D, E32F, G53N, G55A, S57D
VL: B2 VL with T24K, A25S, E27Q, S31Y, K33S, H34N, V36K, H37N, I62G, S99R
EC50 [6]: 0.216 nM

B12: PcOxP_DB02_F10 (human IgG1) (antibody, V domains shown)
VH: B1 VH with E32Q, G53N, G55A, S57D
VL: B2 VL with A25S, E27Q, L29V, Y30L, K35N, V36K, H37N, I62W
EC50 [6]: 0.659 nM
